According to paper PMC6812618 (Journal of biological inorganic chemistry : JBIC : a …, 2019):
“And” between values parts separate entries of the source, which are not always exact repeats. Equal entries are not always repeated.

Target: the molecule itself
Assay: AUC

B1: human BOLA3 (natural protein, UniProt Q53S33 25-107, looked up)
chain: MFATQTEGELRVTQILKEKFPRATAIKVTDISGGCGAMYEIKIESEEFKEKRTVQQHQMVNQALKEEIKEMHGLRIFTSVPKR
B1 was tested, and the “stoichiometry N” value was 2 and 4.
